# Laboratory results as given in patent US20250043002A1.
# Key:
# [1] = molecular target: hPD-L1-mFc: hPD-L1 extracellular domain (amino acids F19-T239) expressed with the Fc portion of mouse IgG2a at the C-terminus (human; mouse) (UniProt Q9NZQ7); assay: blocking ELISA, 0.7 nM hPD-L1-mFc on plate-coated hPD1-hFc
# [2] = molecular target: human CD28 expressed with a C-terminal murine Fc tag (hCD28.mFc) (human); assay: SPR Biacore 25 C, hCD28.mFc captured by anti-mFc, antibody injected
# [3] = molecular target: human PD-L1 expressed with a C-terminal myc-myc-hexahistidine tag (hPD-L1.mmH) (human); assay: SPR Biacore 25 C, antibody captured by anti-hFc, hPD-L1.mmH injected
# Sequence of human PD-L1 expressed with a C-terminal myc-myc-hexahistidine tag (hPD-L1.mmH) (human) (chain, as listed by the source limits assumed): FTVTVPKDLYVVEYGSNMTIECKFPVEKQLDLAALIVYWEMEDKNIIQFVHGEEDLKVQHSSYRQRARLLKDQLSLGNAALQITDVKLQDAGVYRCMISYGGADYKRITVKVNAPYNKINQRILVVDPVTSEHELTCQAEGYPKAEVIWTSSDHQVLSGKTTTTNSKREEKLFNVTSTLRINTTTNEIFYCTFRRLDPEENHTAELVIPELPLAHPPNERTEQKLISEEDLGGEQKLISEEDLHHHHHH
# Sequence of hPD-L1-mFc: hPD-L1 extracellular domain (amino acids F19-T239) expressed with the Fc portion of mouse IgG2a at the C-terminus (human; mouse) (Q9NZQ7 19-239 limits assumed): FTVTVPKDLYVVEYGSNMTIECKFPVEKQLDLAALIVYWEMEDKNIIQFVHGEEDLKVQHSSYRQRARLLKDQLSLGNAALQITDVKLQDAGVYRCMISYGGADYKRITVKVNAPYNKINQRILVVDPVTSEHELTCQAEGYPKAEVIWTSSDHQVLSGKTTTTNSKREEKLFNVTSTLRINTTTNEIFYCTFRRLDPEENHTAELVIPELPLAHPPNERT
% Blocking at 100 nM mAb [1] [%],90 nM mAb Bind (RU) [2] [RU],30 nM hPD-L1.mmH Bind (RU) [3] [RU],Substance
4,–,–,Isotype control 3 (antibody)
–,-4.3,0.5,Isotype Control (antibody)
1,–,–,Isotype control 1 (antibody)
1,–,–,Isotype control 2 (antibody)
